Measured values published in publication PMC1869045 (Journal of thrombosis and haemostasis : JTH, 2007).

Molecular target: the molecule itself
Test: FRET or BRET

B1: GPVI BRET pair (GPVI-GFP and GPVI-luciferase) (receptor, UniProt Q9HCN6 21-339, looked up)
chain: QSGPLPKPSLQALPSSLVPLEKPVTLRCQGPPGVDLYRLEKLSSSRYQDQAVLFIPAMKRSLAGRYRCSYQNGSLWSLPSDQLELVATGVFAKPSLSAQPGPAVSSGGDVTLQCQTRYGFDQFALYKEGDPAPYKNPERWYRASFPIITVTAAHSGTYRCYSFSSRDPYLWSAPSDPLELVVTGTSVTPSRLPTEPPSPVAEFSEATAELTVSFTNEVFTTETSRSITASPKESDSPAGPARQYYTKGNLVRICLGAVILIILAGFLAEDWHSRRKRLRHRGRAVQRPLPPLPPLPLTRKSNGGQDGGRQDVHSRGLCS
In the case of B1, the “stoichiometry N” value is reported as 2.
